The source of these data is article PMC4948710.

Where only a bound is given, the exact number is not on record here.

Test [1] has as its target Nematostella vectensis β-catenin, full length (Nematostella vectensis). Put plainly: ITC.
In test [2] the target is F-actin polymerised from chicken muscle G-actin (chicken) (UniProt P68139). Put plainly: co-sedimentation.

As usually defined, the Kd is the free concentration of one partner at which half of the binding sites on the other are occupied at equilibrium, for simple one-to-one binding. A higher Kd goes with a looser complex.

“Nematostella vectensis Cadherin-1 cytoplasmic region (domain or fragment)” returned a Kd in test [1] of 7.9 nM.

“Nematostella vectensis Cadherin-2 cytoplasmic region (domain or fragment)” yielded a Kd in test [1] of 1.3 nM.

On to “Nematostella vectensis α-catenin lacking the insert (residues 638-1,021 deleted) (domain or fragment)”, for which the Kd in test [2] was greater than 12000 nM.

In test [2], “Nematostella vectensis α-catenin, full length (natural protein)” came in with a Kd of 800 nM.
